Measured values: PMC12550018, “High-resolution native electrophoresis in-gel activity assay reveals biological insights of medium-chain fatty acyl-CoA dehydrogenase deficiency” (Scientific Reports, 2025)

Tests used:
[1] = biological target: the molecule itself; test: SEC; Superdex 200 5/150 GL, 2 mg/ml protein, 0.1 ml PBS/min, 5 °C, absorbance at 280 nm; mass by calibration with protein standards
[2] = biological target: the molecule itself; test: native gel or EMSA; high-resolution clear native PAGE (hrCN-PAGE) of purified recombinant protein, 4-16% or 4-20% gradient gels, pH 7.0, cathode buffer with 0.05% sodium deoxycholate and 0.01% n-dodecyl-beta-D-maltoside; Coomassie, FAD fluorescence and acyl-CoA:NBT in-gel activity staining

Protein	stoichiometry N [1]	binding result [2]
Medium-chain specific acyl-CoA dehydrogenase (MCAD), human recombinant wild type (enzyme, UniProt P11310-1 26-421, looked up, Medium-chain specific acyl-CoA dehydrogenase (MCAD), human, encoded by ACADM; One FAD per monomer; also called MCAD WT; human recombinant MCAD; not shown: MBP, N-terminal, cleaved) KANRQREPGLGFSFEFTEQQKEFQATARKFAREEIIPVAAEYDKTGEYPVPLIRRAWELGLMNTHIPENCGGLGLGTFDACLISEELAYGCTGVQTAIEGNSLGQMPIIIAGNDQQKKKYLGRMTEEPLMCAYCVTEPGAGSDVAGIKTKAEKKGDEYIINGQKMWITNGGKANWYFLLARSDPDPKAPANKAFTGFIVEADTPGIQIGRKELNMGQRCSDTRGIVFEDVKVPKENVLIGDGAGFKVAMGAFDKTRPVVAAGAVGLAQRALDEATKYALERKTFGKLLVEHQAISFMLAEMAMKVELARMSYQRAAWEVDSGRRNTYYASIAKAFAGDIANQLATDAVQILGGNGFNTEYPVEKLMRDAKIYQIYEGTSQIQRLIVAREHIDKYKN	4	
MCAD variant p.Y67H, human recombinant (enzyme, UniProt P11310-1 26-421, looked up, MCAD, human, encoded by ACADM, clinically relevant variant p.Y67H made by site-directed mutagenesis in pMALc2X; masses fit the mature protein (26-421); The residue number counts on the precursor; also called MCAD Y67H; not shown: MBP, N-terminal, cleaved) KANRQREPGLGFSFEFTEQQKEFQATARKFAREEIIPVAAEHDKTGEYPVPLIRRAWELGLMNTHIPENCGGLGLGTFDACLISEELAYGCTGVQTAIEGNSLGQMPIIIAGNDQQKKKYLGRMTEEPLMCAYCVTEPGAGSDVAGIKTKAEKKGDEYIINGQKMWITNGGKANWYFLLARSDPDPKAPANKAFTGFIVEADTPGIQIGRKELNMGQRCSDTRGIVFEDVKVPKENVLIGDGAGFKVAMGAFDKTRPVVAAGAVGLAQRALDEATKYALERKTFGKLLVEHQAISFMLAEMAMKVELARMSYQRAAWEVDSGRRNTYYASIAKAFAGDIANQLATDAVQILGGNGFNTEYPVEKLMRDAKIYQIYEGTSQIQRLIVAREHIDKYKN	4	
MCAD variant p.R206C, human recombinant (enzyme, UniProt P11310-1 26-421, looked up, MCAD, human, encoded by ACADM, clinically relevant variant p.R206C made by site-directed mutagenesis in pMALc2X; masses fit the mature protein (26-421); The residue number counts on the precursor; Native MS: only three FAD per tetramer; also called MCAD R206C; not shown: MBP, N-terminal, cleaved) KANRQREPGLGFSFEFTEQQKEFQATARKFAREEIIPVAAEYDKTGEYPVPLIRRAWELGLMNTHIPENCGGLGLGTFDACLISEELAYGCTGVQTAIEGNSLGQMPIIIAGNDQQKKKYLGRMTEEPLMCAYCVTEPGAGSDVAGIKTKAEKKGDEYIINGQKMWITNGGKANWYFLLACSDPDPKAPANKAFTGFIVEADTPGIQIGRKELNMGQRCSDTRGIVFEDVKVPKENVLIGDGAGFKVAMGAFDKTRPVVAAGAVGLAQRALDEATKYALERKTFGKLLVEHQAISFMLAEMAMKVELARMSYQRAAWEVDSGRRNTYYASIAKAFAGDIANQLATDAVQILGGNGFNTEYPVEKLMRDAKIYQIYEGTSQIQRLIVAREHIDKYKN	4	
MCAD variant p.K329E, human recombinant (enzyme, UniProt P11310-1 26-421, looked up, MCAD, human, encoded by ACADM, clinically relevant variant p.K329E made by site-directed mutagenesis in pMALc2X; masses fit the mature protein (26-421); The residue number counts on the precursor; also called MCAD K329E; not shown: MBP, N-terminal, cleaved) KANRQREPGLGFSFEFTEQQKEFQATARKFAREEIIPVAAEYDKTGEYPVPLIRRAWELGLMNTHIPENCGGLGLGTFDACLISEELAYGCTGVQTAIEGNSLGQMPIIIAGNDQQKKKYLGRMTEEPLMCAYCVTEPGAGSDVAGIKTKAEKKGDEYIINGQKMWITNGGKANWYFLLARSDPDPKAPANKAFTGFIVEADTPGIQIGRKELNMGQRCSDTRGIVFEDVKVPKENVLIGDGAGFKVAMGAFDKTRPVVAAGAVGLAQRALDEATKYALERKTFGKLLVEHQAISFMLAEMAMEVELARMSYQRAAWEVDSGRRNTYYASIAKAFAGDIANQLATDAVQILGGNGFNTEYPVEKLMRDAKIYQIYEGTSQIQRLIVAREHIDKYKN	4	
Glutaryl-CoA dehydrogenase (GCDH), human recombinant wild type (enzyme, UniProt Q92947 45-438, looked up, Glutaryl-CoA dehydrogenase, human, wild type; source: purified by a procedure similar to that for MCAD (E. coli, MBPTrap, TEV digestion, SEC)) RPEFDWQDPLVLEEQLTTDEILIRDTFRTYCQERLMPRILLANRNEVFHREIISEMGELGVLGPTIKGYGCAGVSSVAYGLLARELERVDSGYRSAMSVQSSLVMHPIYAYGSEEQRQKYLPQLAKGELLGCFGLTEPNSGSDPSSMETRAHYNSSNKSYTLNGTKTWITNSPMADLFVVWARCEDGCIRGFLLEKGMRGLSAPRIQGKFSLRASATGMIIMDGVEVPEENVLPGASSLGGPFGCLNNARYGIAWGVLGASEFCLHTARQYALDRMQFGVPLARNQLIQKKLADMLTEITLGLHACLQLGRLKDQDKAAPEMVSLLKRNNCGKALDIARQARDMLGGNGISDEYHVIRHAMNLEAVNTYEGTHDIHALILGRAITGIQAFTASK		binds
